The values below come from paper PMC5339705, “OGG1-DNA interactions facilitate NF-κB binding to DNA targets”.

Common to all, as to conditions: protein: commercial;commercial; tags: ;; copies: 1;1; label: 5' biotin on strand 2; blunt
The target of series [1] is T1, p65 (RelA);p50 (NF-kB1) (;, UniProt Q04206;P19838 1-551;1-433, |). Description: EMSA; with OGG1 4 ng; highest shifted amount of κB1 oligos; 10 mM Tris-HCl pH 8.0, 5 mM NaCl, 1 mM EDTA, 1 mM DTT, 0.1 mg/ml BSA, 0.1 µg/µl poly(dI-dC) (stated for NE reactions), 10 fmol probe, 10 µl, RT 5-10 min; 6% gel 0.5x TBE 4 °C. In general terms: A gel shift assay detects complexes by their altered migration in electrophoresis.

For series [2], the target named is T1, p65 (RelA);p50 (NF-kB1). Description: EMSA; with OGG1 4 ng; higher than Wt; 10 mM Tris-HCl pH 8.0, 5 mM NaCl, 1 mM EDTA, 1 mM DTT, 0.1 mg/ml BSA, 0.1 µg/µl poly(dI-dC) (stated for NE reactions), 10 fmol probe, 10 µl, RT 5-10 min; 6% gel 0.5x TBE 4 °C.
Series [3] addresses T1, p65 (RelA);p50 (NF-kB1). Description: EMSA; no OGG1; complex from 5 min; 10 mM Tris-HCl pH 8.0, 5 mM NaCl, 1 mM EDTA, 1 mM DTT, 0.1 mg/ml BSA, 0.1 µg/µl poly(dI-dC) (stated for NE reactions), 10 fmol probe, 10 µl, RT 5-10 min; 6% gel 0.5x TBE 4 °C.

T1 sequence (Q04206 whole entry, chain 1 of 2): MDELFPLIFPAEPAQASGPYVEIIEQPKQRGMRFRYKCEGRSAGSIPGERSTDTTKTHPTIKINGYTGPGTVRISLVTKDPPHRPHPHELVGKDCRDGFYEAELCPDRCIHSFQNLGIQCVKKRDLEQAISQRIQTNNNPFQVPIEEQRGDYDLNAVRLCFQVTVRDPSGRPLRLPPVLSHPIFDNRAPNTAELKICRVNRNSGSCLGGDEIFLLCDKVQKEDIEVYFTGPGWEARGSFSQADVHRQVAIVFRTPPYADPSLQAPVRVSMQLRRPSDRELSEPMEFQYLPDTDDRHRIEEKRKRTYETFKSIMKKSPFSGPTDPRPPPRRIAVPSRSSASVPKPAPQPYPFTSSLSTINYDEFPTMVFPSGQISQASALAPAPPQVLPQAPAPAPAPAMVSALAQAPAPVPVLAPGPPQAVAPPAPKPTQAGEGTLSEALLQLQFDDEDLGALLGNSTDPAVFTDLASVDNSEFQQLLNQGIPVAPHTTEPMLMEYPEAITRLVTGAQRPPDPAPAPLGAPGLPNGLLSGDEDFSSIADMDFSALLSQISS
T1 sequence (P19838 1-433, chain 2 of 2): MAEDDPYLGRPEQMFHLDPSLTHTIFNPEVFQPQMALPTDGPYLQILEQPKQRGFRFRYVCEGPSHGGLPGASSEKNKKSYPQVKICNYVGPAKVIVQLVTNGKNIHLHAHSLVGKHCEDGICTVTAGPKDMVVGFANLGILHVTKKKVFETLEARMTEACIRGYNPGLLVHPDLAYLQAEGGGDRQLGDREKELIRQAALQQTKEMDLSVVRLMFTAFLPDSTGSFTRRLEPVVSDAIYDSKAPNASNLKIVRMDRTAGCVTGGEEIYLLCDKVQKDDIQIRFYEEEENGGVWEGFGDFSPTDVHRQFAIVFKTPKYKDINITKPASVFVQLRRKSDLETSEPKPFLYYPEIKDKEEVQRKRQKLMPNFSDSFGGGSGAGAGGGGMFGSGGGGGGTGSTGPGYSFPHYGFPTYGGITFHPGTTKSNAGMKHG

B1: κB1-G3 (dsDNA)
DNA 1: TTCCCTGGTCCCCGGGCTTTTCCAGACATCG
DNA 2: CGATGTCTGGAAAAGCCCGGGGACCAGGGAA
modifications: 8-oxoG at strand 2 position 27 (opposite C5 of strand 1)
As to B1, the binding result with p65 (RelA);p50 (NF-kB1) [1] is “binds”.

B2: κB2-G3 (dsDNA)
DNA 1: TGAGGGGACCCTGAGCTCAGGGAATTTCCCTGG
DNA 2: CCAGGGAAATTCCCTGAGCTCAGGGTCCCCTCA
modifications: 8-oxoG at strand 1 position 4 (number label read as following the base)
As to B2, in the series with p65 (RelA);p50 (NF-kB1) [2], the binding result is “binds”.

B3: κB2-Wt (dsDNA)
DNA 1: B2 DNA 1
DNA 2: B2 DNA 2
With B3, the binding result with p65 (RelA);p50 (NF-kB1) [3] is given as “binds”.

B4: κB2-G6 (dsDNA)
DNA 1: B2 DNA 1
DNA 2: B2 DNA 2
modifications: 8-oxoG at strand 2 position 23 (opposite C11 of strand 1)
For B4, the binding result with p65 (RelA);p50 (NF-kB1) [2] is reported as “binds”.

B5: κB2-G4 (dsDNA)
DNA 1: B2 DNA 1
DNA 2: B2 DNA 2
modifications: 8-oxoG at strand 1 position 7
B5: the binding result in the series with p65 (RelA);p50 (NF-kB1) [2] is reported as “binds”.
